The chains are these.
B1: SHC-transforming protein 1 (Homo sapiens), P29353-1 (parent)
chain: MDLLPPKPKYNPLRNESLSSLEEGASGSTPPEELPSPSASSLGPILPPLPGDDSPTTLCSFFPRMSNLRLANPAGGRPGSKGEPGRAADDGEGIVGAAMPDSGPLPLLQDMNKLSGGGGRRTRVEGGQLGGEEWTRHGSFVNKPTRGWLHPNDKVMGPGVSYLVRYMGCVEVLQSMRALDFNTRTQVTREAISLVCEAVPGAKGATRRRKPCSRPLSSILGRSNLKFAGMPITLTVSTSSLNLMAADCKQIIANHHMQSISFASGGDPDTAEYVAYVAKDPVNQRACHILECPEGLAQDVISTIGQAFELRFKQYLRNPPKLVTPHDRMAGFDGSAWDEEEEEPPDHQYYNDFPGKEPPLGGVVDMRLREGAAPGAARPTAPNAQTPSHLGATLPVGQPVGGDPEVRKQMPPPPPCPGRELFDDPSYVNVQNLDKARQAVGGAGPPNPAINGSAPRDLFDMKPFEDALRVPPPPQSVSMAEQLRGEPWFHGKLSRREAEALLQLNGDFLVRESTTTPGQYVLTGLQSGQPKHLLLVDPEGVVRTKDHRFESVSHLISYHMDNHLPIISAGSELCLQQPVERKL

The variants in the assay derive from B1. Conditions: with grb2_human GRB2, P62993.
Chain of grb2_human GRB2, P62993 (P62993 whole entry, looked up): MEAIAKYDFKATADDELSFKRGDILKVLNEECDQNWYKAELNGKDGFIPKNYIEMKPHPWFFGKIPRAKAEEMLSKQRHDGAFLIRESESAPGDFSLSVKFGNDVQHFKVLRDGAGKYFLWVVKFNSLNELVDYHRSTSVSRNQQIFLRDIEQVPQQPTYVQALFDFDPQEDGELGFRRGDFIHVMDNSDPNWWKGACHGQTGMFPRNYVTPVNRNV
In the case of P47A;P50A, the “effect of a mutation on the interaction” value is reported as “decreasing interaction”.

The values are drawn from IntAct's records for PubMed 16520382.
